As a reminder, the Kd is the constant that tells how readily two partners part at equilibrium.

For assay [1], the target named is PTP1BS187C lite / C3-SLF conjugate (UniProt P18031). Nature of the assay: X-ray crystal structure FKBP12-C3SLF-PTP1BS187C.
For assay [2], the target named is MCL1S245C lite / C3-SLF conjugate (UniProt Q07820). Briefly: X-ray crystal structure MCL1S245C/C3SLF/FKBP52, 3.0 Å.
The target in assay [3] is T1, FKBP12-Compound 2 binary complex (UniProt P62942 1-108).
T1 construct: FKBP12 (10 µM) pre-incubated with 20 µM of the non-covalent ligand Compound 2 in the ITC cell
Briefly: ITC, 298 K; FKBP12 + Compound 2 in cell, CEP25011.4 in syringe. How it is done: (§1) CEP250 protein stocks are diluted to 50 μM in assay buffer and supplemented with 20 μM compound (1% DMSO final) before being filled into the injection syringe. A control experiment in the absence of compound is also run to determine the heat associated with operational artifacts and the dilution of titrant as it is injected from the syringe into the reaction cell.
(§2) Data Fitting: Data were fitted with the Origin ITC200 software according to the following procedure: [0473] 1) Read raw data [0474] 2) In “mRawITC”: adjust integration peaks and baseline, integrate all peaks [0475] 3) In “Delta H”—data control: remove bad data (injection #1 and other artifacts), subtract straight line (background subtraction) [0476] 4) In “Delta H”—model fitting: select one set of sites model, perform fitting with Levenberg-Marquardt algorithm until Chi Square is not reduced further, finish with “done” (parameters N, Kₐ and ΔH are calculated based on fitting)
Background: ITC needs no label: the signal is the heat of the interaction.

For assay [4], the target named is T2, 12xHIS tagged FKBP12 / Compound 1 binary complex (UniProt P62942 1-108, limits assumed).
T2 construct: Immobilized on an NTA chip, with 1 µM Compound 1 in all buffers; also called immobilized FKBP12-Compound 1 binary complex; not shown: 12xHIS tag
Briefly: SPR (Biacore X100), 12xHIS FKBP12 on NTA chip with 1 µM Compound 1, CEP250 as analyte, 1:1 model, 25 °C. How it is done: Experimental Protocol: Experiments are performed at 25° C. […] The second flow cell is not activated as a reference for non-specific interaction of the analyte to the sensor chip. […] The surface is regenerated between analyte injections with 350 mM EDTA.
Data Fitting: The BiaEvaluation software program is used for data fitting. All data is reference subtracted against both the reference flow cell and a buffer injection. For kinetic analyses, data is locally fit to a 1:1 interaction model.
On the technique in general: In SPR one partner is held on a chip, and binding of the other changes the refractive index at the surface.

Assay [5] concerns the target T3, FKBP12-Compound 1 binary complex (UniProt P62942 1-108).
T3 construct: FKBP12 (10 µM) pre-incubated with 20 µM of the non-covalent ligand Compound 1 in the ITC cell
Nature of the assay: ITC, 298 K; FKBP12 + Compound 1b in cell, CEP25011.4 in syringe. How it is done:
as §1, §2

Sequence of MCL1S245C lite / C3-SLF conjugate (Q07820 other isoform, or with tags, fused parts or gaps with the stated changes limits assumed): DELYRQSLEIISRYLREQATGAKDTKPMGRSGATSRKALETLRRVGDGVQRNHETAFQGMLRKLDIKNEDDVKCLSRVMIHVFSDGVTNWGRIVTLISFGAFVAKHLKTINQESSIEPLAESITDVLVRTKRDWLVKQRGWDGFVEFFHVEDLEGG
Sequence of PTP1BS187C lite / C3-SLF conjugate (P18031 other isoform, or with tags, fused parts or gaps limits assumed, change not shown): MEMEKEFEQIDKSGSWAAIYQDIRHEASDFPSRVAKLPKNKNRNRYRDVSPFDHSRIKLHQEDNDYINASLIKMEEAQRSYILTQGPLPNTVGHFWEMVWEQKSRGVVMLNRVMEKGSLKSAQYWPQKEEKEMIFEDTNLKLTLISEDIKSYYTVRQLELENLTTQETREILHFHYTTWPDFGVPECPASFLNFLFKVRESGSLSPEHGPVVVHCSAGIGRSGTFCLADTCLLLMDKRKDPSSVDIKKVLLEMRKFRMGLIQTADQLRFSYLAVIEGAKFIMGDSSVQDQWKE
T1 sequence (P62942 whole entry, one chain of several): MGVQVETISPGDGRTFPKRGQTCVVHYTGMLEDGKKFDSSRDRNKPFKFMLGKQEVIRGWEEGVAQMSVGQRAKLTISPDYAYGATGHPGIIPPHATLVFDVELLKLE
T3 sequence (P62942 whole entry, one chain of several): as above
T2 sequence (P62942 whole entry, one chain of several): as above

For the molecule “FKBP12 (in-house) (from UniProt P62942 1-108) (enzyme)”, in assay [1], the buried surface area of PTP1BS187C amounted to 427 Å^2 and the total buried surface area of the complex was 1040 Å^2.

B1: FKBP52 (in-house, residues 1-140) (enzyme, UniProt Q02790 1-140, looked up)
chain: MTAEEMKATESGAQSAPLPMEGVDISPKQDEGVLKVIKREGTGTEMPMIGDRVFVHYTGWLLDGTKFDSSLDRKDKFSFDLGKGEVIKAWDIAIATMKVGEVCHITCKPEYAYGSAGSPPKIPPNATLVFEVELFEFKGE
In assay [2], B1 registered a buried surface area contributed by FKBP52 of 804 Å^2, a share of buried surface area contributed by FKBP52 of 60% and a total buried surface area of the complex of 1410 Å^2.

B2: CEP25011.4 (residues 2134-2231) (other, UniProt Q9BV73 2134-2231, looked up)
chain: MEEQSLKLDSLEPRLQRELERLQAALRQTEAREIEWREKAQDLALSLAQTKASVSSLQEVAMFLQASVLERDSEQQRLQDELELTRRALEKERLHSPG
notes: range 2134-2231
Take B2: the values for the dissociation constant (Kd) in assay [3], in assay [4] and in assay [5] were 80 nM, 5.4 nM and 70 nM, respectively.

These data come from patent publication US20210405060A1 (published 2021).
